In patent publication US20100260668A1 (published 2010):
Values joined by “and” are separate entries in the source; they are usually repeats but may differ in a detail not shown here. Identical values can stand only once. One block for each binder: values may come before it.

Tests used:
[1] = target: T1, HGF (UniProt P14210 32-728); assay: SPR (Biacore); C-terminal VD
[2] = target: T2, recombinant human HGF (human, UniProt P14210 32-728); assay: competition ELISA: DVD-Ig co-incubated with 2 nM soluble c-Met Fc on coated HGF (competitor c-Met Fc)
T2 construct: The target there is entered as this HGF; also called hepatocyte growth factor
T2 sequence (P14210 32-728 limits assumed): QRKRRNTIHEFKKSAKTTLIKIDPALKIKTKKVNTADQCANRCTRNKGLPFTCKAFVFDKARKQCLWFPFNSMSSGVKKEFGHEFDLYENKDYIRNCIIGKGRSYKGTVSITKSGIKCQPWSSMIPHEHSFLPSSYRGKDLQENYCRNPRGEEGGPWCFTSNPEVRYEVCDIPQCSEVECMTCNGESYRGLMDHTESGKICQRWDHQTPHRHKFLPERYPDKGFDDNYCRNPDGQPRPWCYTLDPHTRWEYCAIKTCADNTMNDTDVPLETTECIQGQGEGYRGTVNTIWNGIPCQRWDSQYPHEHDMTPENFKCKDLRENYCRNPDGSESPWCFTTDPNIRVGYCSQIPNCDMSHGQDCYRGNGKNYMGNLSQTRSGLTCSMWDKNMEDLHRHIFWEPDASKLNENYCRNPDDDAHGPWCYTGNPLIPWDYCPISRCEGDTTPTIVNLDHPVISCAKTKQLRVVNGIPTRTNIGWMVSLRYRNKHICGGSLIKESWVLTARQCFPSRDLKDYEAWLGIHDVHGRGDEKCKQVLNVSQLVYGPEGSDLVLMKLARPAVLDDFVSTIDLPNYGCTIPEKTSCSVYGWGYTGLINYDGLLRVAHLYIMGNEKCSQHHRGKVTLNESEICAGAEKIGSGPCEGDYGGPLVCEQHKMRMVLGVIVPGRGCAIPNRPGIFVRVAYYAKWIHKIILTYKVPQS

[3] = target: T1, HGF; assay: SPR (Biacore); parent antibody
[4] = target: T3, IGF1R ECD (UniProt P08069 31-935, limits assumed); assay: Biacore SPR
T3 construct: extracellular domain; Bought reagent

[5] = target: T4, DLL4 (DLL4 ECD/His tag, R&D Systems 1506-D4-050) (UniProt Q9NR61 27-529); assay: Direct bind ELISA on DLL4; DLL4 domain C-term., HC short, LC long
T4 construct: extracellular domain; not shown: His tag

[6] = target: T5, ErbB3 on A431 cells (human, UniProt P21860 20-1342); assay: cell-based or functional assay
[7] = target: T5, ErbB3 on A431 cells; assay: cell-based or functional assay; remark: listed apart in the source
[8] = target: NRP1 (Neuropilin-1 Npn-1-His tag) (UniProt O14786-2 22-644); assay: SPR (Biacore); parent antibody
[9] = target: T4, DLL4 (DLL4 ECD/His tag, R&D Systems …); assay: Direct bind ELISA on DLL4; DLL4 domain N-term., HC short, LC long
[10] = target: T6, PlGF (Placental GF) (UniProt P49763-2 21-149, limits assumed); assay: SPR (Biacore); parent antibody
T6 sequence (looked up): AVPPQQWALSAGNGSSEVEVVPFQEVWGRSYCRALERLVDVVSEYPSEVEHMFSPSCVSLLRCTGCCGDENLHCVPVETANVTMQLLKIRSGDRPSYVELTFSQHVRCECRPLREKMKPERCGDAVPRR

[11] = target: T7, IGF-2 (UniProt P01344 25-91); assay: Biacore SPR
T7 construct: Bought reagent

[12] = target: T8, IGF-I (UniProt P05019 49-118); assay: Biacore SPR
T8 construct: Bought reagent; also called IGF1

T1 sequence (P14210 32-728 limits assumed): as the sequence (P14210 32-728 limits assumed) above

Kd [1]: 0.901 nM
koff [1]: 0.000166 s⁻¹
kon [1]: 184000 M⁻¹ s⁻¹
B1: DVD045 (bispecific antibody, human IgG1, kappa)
heavy: not shown
light: DIQMTQSPSSLSASVGDRVTITCSASQDISNYLNWYQQKPGKAPKVLIYFTSSLHSGVPSRFSGSGSGTDFTLTISSLQPEDFATYYCQQYSTVPWTFGQGTKVEIKRTVAAPDIQMTQSPSSVSASVGDRVTITCRASQGISSWLAWYQQKPGKAPNLLIYEASSLQSGVPSRFGGSGSGTDFTLTISSLQPEDFATYYCQQANGFPWTFGQGTKVEIKRTVAAPSVFIFPPSDEQLKSGTASVVCLLNNFYPREAKVQWKVDNALQSGNSQESVTEQDSKDSTYSLSSTLTLSKADYEKHKVYACEVTHQGLSSPVTKSFNRGEC
notes: N-terminal VD VEGF, C-terminal VD HGF; also called DVD045H; DVD045L

IC50 [2]: > 100 nM
B2: DVD045 (VEGF (seq. 1) N-terminal / HGF (seq. 1) C-terminal DVD-Ig, linker set 1) (bispecific antibody, human IgG1, kappa)
heavy: not shown
light: DIQMTQSPSSLSASVGDRVTITCSASQDISNYLNWYQQKPGKAPKVLIYFTSSLHSGVPSRFSGSGSGTDFTLTISSLQPEDFATYYCQQYSTVPWTFGQGTKVEIKRTVAAPDIQMTQSPSSVSASVGDRVTITCRASQGISSWLAWYQQKPGKAPNLLIYEASSLQSGVPSRFGGSGSGTDFTLTISSLQPEDFATYYCQQANGFPWTFGQGTKVEIKRTVAAPSVFIFPPSDEQLKSGTASVVCLLNNFYPREAKVQWKVDNALQSGNSQESVTEQDSKDSTYSLSSTLTLSKADYEKHKVYACEVTHQGLSSPVTKSFNRGEC
notes: also called DVD045H/DVD045L

Inhibition Of A431 Proliferation (% Inhibition At 2.4 nM Ab/DVD) [6]: 14%
Inhibition Of A431 Proliferation (% Inhibition At 21.6 nM Ab/DVD) [6]: 27%
Inhibition Of EGFR Phosphorylation (% Inhibition At 60 nM Ab/DVD) [7]: 0%
Inhibition Of ErbB3 Phosphorylation (% Inhibition At 60 nM Ab/DVD) [7]: 72%
B9: AB062 (anti-ErbB3 (seq. 1) parent antibody) (antibody, human IgG1, kappa, V domains shown)
VH: QVQLQQWGAGLLKPSETLSLTCAVYGGSFSGYYWSWIRQPPGKGLEWIGEINHSGSTNYNPSLKSRVTISVETSKNQFSLKLSSVTAADTAVYYCARDKWTWYFDLWGRGTLVTVSS
VL: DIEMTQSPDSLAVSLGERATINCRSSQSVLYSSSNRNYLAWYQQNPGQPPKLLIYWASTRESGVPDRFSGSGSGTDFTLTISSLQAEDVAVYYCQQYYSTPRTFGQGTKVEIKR

Kd [10]: 0.0285 nM
koff [10]: 0.000108 s⁻¹
kon [10]: 3.8e+06 M⁻¹ s⁻¹
B12: AB047 (antibody, human IgG1, kappa, V domains shown)
VH: QVQLQQSGAELVKPGASVKISCKASGYTFTDYYINWVKLAPGQGLEWIGWIYPGSGNTKYNEKFKGKATLTIDTSSSTAYMQLSSLTSEDTAVYFCVRDSPFFDYWGQGTLLTVSS
VL: DIVLTQSPDSLAVSLGERVTMNCKSSQSLLNSGMRKSFLAWYQQKPGQSPKLLIYWASTRESGVPDRFTGSGSGTDFTLTISSVQAEDVAVYYCKQSYHLFTFGSGTKLEIKR
notes: also called AB047VH; AB047VL

Continued, binder first:

B3: AB012 (antibody, human IgG1, kappa, V domains shown)
VH: QVQLVESGGGLVKPGGSLRLSCAASGFTFSDYYMSWIRQAPGKGLEWVSYISSSGSTIYYADSVKGRFTISRDNAKNSLYLQMNSLRAEDTAVYYCARDEYNSGWYVLFDYWGQGTLVTVSS
VL: DIQMTQSPSSVSASVGDRVTITCRASQGISSWLAWYQQKPGKAPNLLIYEASSLQSGVPSRFGGSGSGTDFTLTISSLQPEDFATYYCQQANGFPWTFGQGTKVEIKR
notes: also called AB012VH; AB012VL
Kd [3]: < 0.0284 nM
koff [3]: 0.000284 s⁻¹
kon [3]: > 1e+07 M⁻¹ s⁻¹

B4: AB011 (antibody, human IgG1, kappa, V domains shown)
VH: EVQLLESGGGLVQPGGSLRLSCTASGFTFSSYAMNWVRQAPGKGLEWVSAISGSGGTTFYADSVKGRFTISRDNSRTTLYLQMNSLRAEDTAVYYCAKDLGWSDSYYYYYGMDVWGQGTTVTVSS
VL: DIQMTQFPSSLSASVGDRVTITCRASQGIRNDLGWYQQKPGKAPKRLIYAASRLHRGVPSRFSGSGSGTEFTLTISSLQPEDFATYYCLQHNSYPCSFGQGTKLEIKR
Kd [4]: 0.848 nM
koff [4]: 6.21e-05 s⁻¹
kon [4]: 73200 M⁻¹ s⁻¹

B5: DVD508 (VEGF/DLL4 DVD-Ig) (bispecific antibody, human IgG1)
VH: EVQLVESGGGLVQPGGSLRLSCAASGFTISDYWIHWVRQAPGKGLEWVAGITPAGGYTYYADSVKGRFTISADTSKNTAYLQMNSLRAEDTAVYYCARFVFFLPYAMDYWGQGTLVTVSSASTKGPEVQLQQSGPELVKPGASVKMSCKASGYTFTSYVINWVKQKPGQGLEWIGLINPYNDGTKYNEKFKVKATLTSDKSSSTAYMELSSLTSEDSAVYYCASYYYGSRYYFDYWGQGTTLTVSS
VL: DIQMTQSPSSLSASVGDRVTITCRASQDVSTAVAWYQQKPGKAPKLLIYSASFLYSGVPSRFSGSGSGTDFTLTISSLQPEDFATYYCQQSYTTPPTFGQGTKVEIKRTVAAPSVFIFPPDIQMTQSSSYLSVSLGGRVTITCKASDHINNWLAWYQQKPGNAPRLLISGATSLETGVPSRFSGSGSGKDYTLSITSLQTEDVATYYCQQYWSIPLTFGAGTKLELKR
notes: HC linker short, LC linker long; also called DVD508H; DVD508L
EC50 [5]: 0.61 nM

B6: DVD484 (VEGF/DLL4 DVD-Ig) (bispecific antibody, human IgG1)
VH: EVQLVESGGGLVQPGGSLRLSCAASGFTISDYWIHWVRQAPGKGLEWVAGITPAGGYTYYADSVKGRFTISADTSKNTAYLQMNSLRAEDTAVYYCARFVFFLPYAMDYWGQGTLVTVSSASTKGPEVQLVESGGGLVQPGGSLRLSCAASGFTFTDNWISWVRQAPGKGLEWVGYISPNSGFTYYADSVKGRFTISADTSKNTAYLQMNSLRAEDTAVYYCARDNFGGYFDYWGQGTLVTVSS
VL: DIQMTQSPSSLSASVGDRVTITCRASQDVSTAVAWYQQKPGKAPKLLIYSASFLYSGVPSRFSGSGSGTDFTLTISSLQPEDFATYYCQQSYTTPPTFGQGTKVEIKRTVAAPSVFIFPPDIQMTQSPSSLSASVGDRVTITCRASQDVSTAVAWYQQKPGKAPKLLIYSASFLYSGVPSRFSGSGSGTDFTLTISSLQPEDFATTYYCQQSYTGTVTFGQGTKVEIKR
notes: HC linker short, LC linker long; also called DVD484H; DVD484L
EC50 [5]: 1.75 nM

B7: DVD532 (VEGF/DLL4 DVD-Ig) (bispecific antibody, human IgG1)
VH: EVQLVESGGGLVQPGGSLRLSCAASGFTISDYWIHWVRQAPGKGLEWVAGITPAGGYTYYADSVKGRFTISADTSKNTAYLQMNSLRAEDTAVYYCARFVFFLPYAMDYWGQGTLVTVSSASTKGPEVQLQQSGPELEKPGASVKISCKASGYSFTGYNMNWVKQSNGKSLEWIGNIDPYFGGTNYNQKFKGKATLTVDKSSSTAYMQLKSLTSEDSAVYYCARNYDYDGGCFDYWGQGTTLTVSS
VL: DIQMTQSPSSLSASVGDRVTITCRASQDVSTAVAWYQQKPGKAPKLLIYSASFLYSGVPSRFSGSGSGTDFTLTISSLQPEDFATYYCQQSYTTPPTFGQGTKVEIKRTVAAPSVFIFPPQAVVTQESALTTSPGETVTLTCRSSTGAVTTSNYANWVQEKPDHLFTGLIGGTNNRAPGVPARFSGSLIGDKAALTITGAQTEDEAIYFCALWYSNHWVFGGGTKLTVLG
notes: HC linker short, LC linker long; also called DVD532H; DVD532L
EC50 [5]: 1.43 nM

B8: DVD462 (VEGF/DLL4 DVD-Ig) (bispecific antibody, human IgG1)
VH: EVQLVESGGGLVQPGGSLRLSCAASGFTISDYWIHWVRQAPGKGLEWVAGITPAGGYTYYADSVKGRFTISADTSKNTAYLQMNSLRAEDTAVYYCARFVFFLPYAMDYWGQGTLVTVSSASTKGPQVQLVQSGAEVKKPGASVKISCKASGYSFTAYYIHWVKQAPGQGLEWIGYISSYNGATNYNQKFKGRVTFTTDTSTSTAYMELRSLRSDDTAVYYCARDYDYDVGMDYWGQGTLVTVSS
VL: DIQMTQSPSSLSASVGDRVTITCRASQDVSTAVAWYQQKPGKAPKLLIYSASFLYSGVPSRFSGSGSGTDFTLTISSLQPEDFATYYCQQSYTTPPTFGQGTKVEIKRTVAAPSVFIFPPDIVMTQSPDSLAVSLGERATISCRASESVDNYGISFMKWFQQKPGQPPKLLIYAASNQGSGVPDRFSGSGSGTDFTLTISSLQAEDVAVYYCQQSKEVPWTFGGGTKVEIKR
notes: HC linker short, LC linker long; also called DVD462H; DVD462L
EC50 [5]: 7.99 nM

B10: AB016 (antibody, human IgG1, kappa, V domains shown)
VH: EVQLVESGGGLVQPGGSLRLSCAASGFSFSSEPISWVRQAPGKGLEWVSSITGKNGYTYYADSVKGRFTISADTSKNTAYLQMNSLRAEDTAVYYCARWGKKVYGMDVWGQGTLVTVSS
VL: DIQMTQSPSSLSASVGDRVTITCRASQSISSYLAWYQQKPGKAPKLLIYGASSRASGVPSRFSGSGSGTDFTLTISSLQPEDFATYYCQQYMSVPITFGQGTKVEIKR
notes: also called AB016VH; AB016VL
Kd [8]: 2.67 nM
koff [8]: 0.00039 s⁻¹
kon [8]: 147000 M⁻¹ s⁻¹

B11: DVD507 (DLL4/VEGF DVD-Ig) (bispecific antibody, human IgG1)
VH: EVQLQQSGPELVKPGASVKMSCKASGYTFTSYVINWVKQKPGQGLEWIGLINPYNDGTKYNEKFKVKATLTSDKSSSTAYMELSSLTSEDSAVYYCASYYYGSRYYFDYWGQGTTLTVSSASTKGPEVQLVESGGGLVQPGGSLRLSCAASGFTISDYWIHWVRQAPGKGLEWVAGITPAGGYTYYADSVKGRFTISADTSKNTAYLQMNSLRAEDTAVYYCARFVFFLPYAMDYWGQGTLVTVSS
VL: DIQMTQSSSYLSVSLGGRVTITCKASDHINNWLAWYQQKPGNAPRLLISGATSLETGVPSRFSGSGSGKDYTLSITSLQTEDVATYYCQQYWSIPLTFGAGTKLELKRTVAAPSVFIFPPDIQMTQSPSSLSASVGDRVTITCRASQDVSTAVAWYQQKPGKAPKLLIYSASFLYSGVPSRFSGSGSGTDFTLTISSLQPEDFATYYCQQSYTTPPTFGQGTKVEIKR
notes: HC linker short, LC linker long; also called DVD507H; DVD507L
EC50 [9]: 0.71 nM

B13: AB010 (antibody, human IgG1, lambda, V domains shown)
VH: QVQLVQSGAEVKKPGASVKVSCKASGYTFTSYDINWVRQATGQGLEWMGWMNPNSGNTGYAQKFQGRVTMTRNTSISTAYMELSSLRSEDTAVYYCARDPYYYYYGMDVWGQGTTVTVSS
VL: QSVLTQPPSVSAAPGQKVTISCSGSSSNIENNHVSWYQQLPGTAPKLLIYDNNKRPSGIPDRFSGSKSGTSATLGITGLQTGDEADYYCETWDTSLSAGRVFGGGTKLTVLG
notes: also called anti-IGF1,2 parent antibody
Kd [11]: 0.423 pM and < 0.299 pM
koff [11]: 2.74e-06 s⁻¹ and < 1e-06 s⁻¹
kon [11]: 6.47e+06 M⁻¹ s⁻¹ and 3.35e+06 M⁻¹ s⁻¹
Kd [12]: 0.388 nM
koff [12]: 0.00123 s⁻¹
kon [12]: 3.17e+06 M⁻¹ s⁻¹
